Measurements taken from the supplement of paper PMC7877785.
± gives the uncertainty stated by the source.

Assay: self-splicing fitness, log relative to wild type (ln ratio); higher = more splicing; Tetrahymena group I intron in knt gene, E. coli kanamycin selection, DiMSum; sequences stand for … in CUCUCU…GGAGGGAAAAGUUAUCAGGCAUGCACCUGGUAGCUAGUCUUUAAACCAAUAGAUUGCAUCGGUUUAAAAGGCAAGACCGUCAAAUUGCGGGAAAGGGGUCAACAGCCGUUCAGUACCAAGUCUCAGGGGAAACUUUGAGAUGGCCUUGCAAAGGGUAUGGUAAUAAGCUGACGGACAUGGUCCUAACCACGCAGCCAAGUCCUAAGUCAACAGAUCUUCUGUUGAUAUGGAUGCAGUUCACAGACUAAAUGUCGGUCGGGGAAGAUGUAUUCUUCUCAUAAGAUAUAGUCGGACCUCUCCUUAAUGGGAGCUAGCGGAUGAAGUGAUGCAACACUGGAGCCGCUGGGAACUAAUUUGUAUGCGAAAGUAUAUUGAUUAGUUUUGGAGUACUCGUGGUCG
Summary of the method: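 Six replicate transformations of E. coli BL21(DE3) with a pET-22b(+) library were grown overnight at 37°C or 30°C. The library randomised all eight P1ex-region intron nucleotides, the intron lying in the knt kanamycin-resistance gene, and plates were LB agar with or without 25 μg/mL kanamycin plus 100 μg/mL carbenicillin, 50 μM IPTG and 0.2% rhamnose. Pooled colonies were amplicon-sequenced on an Illumina HiSeq 2500, and fitness is the DiMSum error-weighted combination of wild-type-normalised replicate fold changes, kanamycin versus none.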

GGGCAGCAAUAUUACGUCCU
self-splicing fitness (ln) (37 °C): -3.02 ± 0.32

GGGCAGCAAUAUUACGUCUA
self-splicing fitness (ln) (30 °C): 0.309 ± 0.1 | self-splicing fitness (ln) (37 °C): -1.04 ± 0.1

GGGCAGCAAUAUUACGUGGG
self-splicing fitness (ln) (30 °C): -3.1 ± 0.12 | self-splicing fitness (ln) (37 °C): -2.62 ± 0.13

GGGGAGCAAUAUUACGAAGU
self-splicing fitness (ln) (30 °C): -2.04 ± 0.34

GGGGAGCAAUAUUACGACAC
self-splicing fitness (ln) (30 °C): -0.721 ± 0.14 | self-splicing fitness (ln) (37 °C): -0.843 ± 0.24

GGGGAGCAAUAUUACGACGG
self-splicing fitness (ln) (30 °C): -3.76 ± 0.46

GGGGAGCAAUAUUACGACGU
self-splicing fitness (ln) (30 °C): -0.89 ± 0.12 | self-splicing fitness (ln) (37 °C): -0.094 ± 0.15

GGGGAGCAAUAUUACGAUUG
self-splicing fitness (ln) (30 °C): -2.02 ± 0.45 | self-splicing fitness (ln) (37 °C): -1.67 ± 0.45

GGGGAGCAAUAUUACGCAUA
self-splicing fitness (ln) (30 °C): -3.29 ± 0.48 | self-splicing fitness (ln) (37 °C): -2.28 ± 0.32

GGGGAGCAAUAUUACGCGUG
self-splicing fitness (ln) (30 °C): -1.75 ± 0.13 | self-splicing fitness (ln) (37 °C): -1.96 ± 0.17

GGGGAGCAAUAUUACGGGCC
self-splicing fitness (ln) (37 °C): -1.4 ± 0.28

GGGGAGCAAUAUUACGGGUG
self-splicing fitness (ln) (30 °C): -3.57 ± 0.23 | self-splicing fitness (ln) (37 °C): -2.9 ± 0.43

GGGGAGCAAUAUUACGGUCU
self-splicing fitness (ln) (30 °C): -3.73 ± 0.4 | self-splicing fitness (ln) (37 °C): -0.856 ± 0.31

GGGGAGCAAUAUUACGGUUG
self-splicing fitness (ln) (30 °C): -3.25 ± 0.21 | self-splicing fitness (ln) (37 °C): -2.18 ± 0.22

GGGGAGCAAUAUUACGGUUU
self-splicing fitness (ln) (30 °C): -1.27 ± 0.24 | self-splicing fitness (ln) (37 °C): -0.456 ± 0.29

GGGGAGCAAUAUUACGUAUG
self-splicing fitness (ln) (37 °C): -1.58 ± 0.31

GGGGAGCAAUAUUACGUCGC
self-splicing fitness (ln) (37 °C): -0.104 ± 0.44

GGGGAGCAAUAUUACGUGAU
self-splicing fitness (ln) (30 °C): -2.84 ± 0.25 | self-splicing fitness (ln) (37 °C): -1.8 ± 0.26

GGGGAGCAAUAUUACGUUUC
self-splicing fitness (ln) (30 °C): -2.65 ± 0.2 | self-splicing fitness (ln) (37 °C): -2.64 ± 0.29

GGGUAGCAAUAUUACGACCA
self-splicing fitness (ln) (30 °C): -0.444 ± 0.23 | self-splicing fitness (ln) (37 °C): -0.732 ± 0.42

GGGUAGCAAUAUUACGACGA
self-splicing fitness (ln) (30 °C): -0.202 ± 0.15 | self-splicing fitness (ln) (37 °C): -0.379 ± 0.14

GGGUAGCAAUAUUACGAUAG
self-splicing fitness (ln) (30 °C): -2.32 ± 0.37

GGGUAGCAAUAUUACGAUAU
self-splicing fitness (ln) (30 °C): -0.506 ± 0.11 | self-splicing fitness (ln) (37 °C): -0.0772 ± 0.12

GGGUAGCAAUAUUACGAUUC
self-splicing fitness (ln) (30 °C): -0.648 ± 0.12 | self-splicing fitness (ln) (37 °C): 0.268 ± 0.19

GGGUAGCAAUAUUACGCAAG
self-splicing fitness (ln) (30 °C): -1.59 ± 0.11 | self-splicing fitness (ln) (37 °C): -0.847 ± 0.16

GGGUAGCAAUAUUACGCACA
self-splicing fitness (ln) (30 °C): -0.833 ± 0.2 | self-splicing fitness (ln) (37 °C): 0.402 ± 0.22

GGGUAGCAAUAUUACGCGAC
self-splicing fitness (ln) (30 °C): -2.34 ± 0.2 | self-splicing fitness (ln) (37 °C): -1.62 ± 0.23

GGGUAGCAAUAUUACGCGAU
self-splicing fitness (ln) (30 °C): -3.42 ± 0.26 | self-splicing fitness (ln) (37 °C): -1.93 ± 0.23

GGGUAGCAAUAUUACGCUAC
self-splicing fitness (ln) (30 °C): -1.81 ± 0.34

GGGUAGCAAUAUUACGCUGG
self-splicing fitness (ln) (30 °C): -2.61 ± 0.35 | self-splicing fitness (ln) (37 °C): -2.45 ± 0.42

GGGUAGCAAUAUUACGCUGU
self-splicing fitness (ln) (30 °C): -3.54 ± 0.38 | self-splicing fitness (ln) (37 °C): -2.32 ± 0.29

GGGUAGCAAUAUUACGGAGG
self-splicing fitness (ln) (37 °C): -0.988 ± 0.29

GGGUAGCAAUAUUACGGGUC
self-splicing fitness (ln) (30 °C): -2.32 ± 0.17 | self-splicing fitness (ln) (37 °C): -1.1 ± 0.18

GGGUAGCAAUAUUACGGUCC
self-splicing fitness (ln) (30 °C): -1.34 ± 0.25

GGGUAGCAAUAUUACGUCGA
self-splicing fitness (ln) (30 °C): -0.508 ± 0.14 | self-splicing fitness (ln) (37 °C): -0.243 ± 0.15

GGGUAGCAAUAUUACGUCGG
self-splicing fitness (ln) (30 °C): -3.8 ± 0.2 | self-splicing fitness (ln) (37 °C): -1.68 ± 0.17

GGGUAGCAAUAUUACGUGAG
self-splicing fitness (ln) (30 °C): -0.474 ± 0.074 | self-splicing fitness (ln) (37 °C): 0.074 ± 0.11

GGGUAGCAAUAUUACGUUUU
self-splicing fitness (ln) (30 °C): -1.31 ± 0.063 | self-splicing fitness (ln) (37 °C): -0.826 ± 0.1

GGUAAGCAAUAUUACGAAAU
self-splicing fitness (ln) (30 °C): -1.94 ± 0.34 | self-splicing fitness (ln) (37 °C): -0.431 ± 0.32

GGUAAGCAAUAUUACGACUC
self-splicing fitness (ln) (30 °C): 0.295 ± 0.12 | self-splicing fitness (ln) (37 °C): -0.605 ± 0.18

GGUAAGCAAUAUUACGAGAG
self-splicing fitness (ln) (30 °C): -3.7 ± 0.4 | self-splicing fitness (ln) (37 °C): -3.25 ± 0.25

GGUAAGCAAUAUUACGCAAU
self-splicing fitness (ln) (30 °C): -1.38 ± 0.11 | self-splicing fitness (ln) (37 °C): -1.44 ± 0.14

GGUAAGCAAUAUUACGCCCA
self-splicing fitness (ln) (30 °C): -1.68 ± 0.23 | self-splicing fitness (ln) (37 °C): -1.01 ± 0.27

GGUAAGCAAUAUUACGCCUG
self-splicing fitness (ln) (37 °C): -1.53 ± 0.33

GGUAAGCAAUAUUACGCGAG
self-splicing fitness (ln) (30 °C): -2.95 ± 0.15 | self-splicing fitness (ln) (37 °C): -0.704 ± 0.09

GGUAAGCAAUAUUACGCGCG
self-splicing fitness (ln) (30 °C): -0.623 ± 0.1 | self-splicing fitness (ln) (37 °C): 0.012 ± 0.14

GGUAAGCAAUAUUACGCGUG
self-splicing fitness (ln) (30 °C): -2.42 ± 0.18 | self-splicing fitness (ln) (37 °C): -0.242 ± 0.15

GGUAAGCAAUAUUACGCUGA
self-splicing fitness (ln) (30 °C): -2.82 ± 0.28 | self-splicing fitness (ln) (37 °C): -0.411 ± 0.22

GGUAAGCAAUAUUACGCUUG
self-splicing fitness (ln) (30 °C): -3.34 ± 0.38 | self-splicing fitness (ln) (37 °C): -1.7 ± 0.34

GGUAAGCAAUAUUACGGCUG
self-splicing fitness (ln) (30 °C): -0.805 ± 0.14 | self-splicing fitness (ln) (37 °C): 0.356 ± 0.15

GGUAAGCAAUAUUACGGGGA
self-splicing fitness (ln) (37 °C): -2.42 ± 0.33
